Source: US20190062438A1 (CSL, published 2019)
Substitutions are numbered along the chain they refer to.

T1: human CD131 (human, UniProt P32927 17-897)
T1 sequence: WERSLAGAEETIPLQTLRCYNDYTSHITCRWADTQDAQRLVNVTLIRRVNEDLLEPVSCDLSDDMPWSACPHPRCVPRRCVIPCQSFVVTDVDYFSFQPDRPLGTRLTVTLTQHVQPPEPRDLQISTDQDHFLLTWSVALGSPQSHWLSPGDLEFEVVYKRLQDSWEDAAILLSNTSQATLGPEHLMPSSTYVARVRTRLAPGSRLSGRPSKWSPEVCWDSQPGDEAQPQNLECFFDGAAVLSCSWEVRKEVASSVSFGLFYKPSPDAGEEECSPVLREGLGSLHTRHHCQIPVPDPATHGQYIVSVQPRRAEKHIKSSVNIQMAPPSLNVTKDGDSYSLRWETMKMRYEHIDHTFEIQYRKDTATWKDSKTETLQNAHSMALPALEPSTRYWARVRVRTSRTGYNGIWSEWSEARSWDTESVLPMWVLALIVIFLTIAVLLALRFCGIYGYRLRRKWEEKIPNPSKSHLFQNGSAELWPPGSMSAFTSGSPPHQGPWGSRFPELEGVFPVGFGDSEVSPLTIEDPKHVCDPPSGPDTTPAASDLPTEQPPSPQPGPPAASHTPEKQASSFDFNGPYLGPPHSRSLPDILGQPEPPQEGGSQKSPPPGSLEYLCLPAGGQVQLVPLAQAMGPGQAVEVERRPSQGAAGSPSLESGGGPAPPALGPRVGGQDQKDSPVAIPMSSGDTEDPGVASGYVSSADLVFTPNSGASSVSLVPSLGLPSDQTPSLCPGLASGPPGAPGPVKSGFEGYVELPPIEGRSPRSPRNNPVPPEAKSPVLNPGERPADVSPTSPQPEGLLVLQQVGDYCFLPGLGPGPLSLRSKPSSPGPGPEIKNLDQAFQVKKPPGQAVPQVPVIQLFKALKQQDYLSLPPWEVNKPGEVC

B1: 9A2-VR39.02 (antibody, V domains shown)
VH: EVQLLESGGGLVQPGGSLRLSCAASGFTFYWYHMIWVRQAPGKGLEWVSSINGRGRVTYYADSVKGRFTISRDNSKNTLYLQMNSLRAEDTAVYYCARFYDSFFDIWGQGTMVTVSS
VL: DIQMTQSPSSVSASVGDRVTITCRASQGISSWLAWYQQKPGKAPKLLIYAASSLQSGVPSRFSGSGSGTDFTLTISSLQPEDFATYYCQQANSFPITFGQGTRLEIKR
B2: 9A2-VR39.16 (antibody, V domains shown)
VH: B1 VH with Y30Q, Y32F, H33N, M34I, I35V
VL: B1 VL
B3: 9A2-VR39.17 (antibody, V domains shown)
VH: B1 VH with Y30P, W31F, M34K, I35V
VL: B1 VL
B4: 9A2-VR39.11 (antibody, V domains shown)
VH: B1 VH with Y30Q, W31E, Y32F, M34T
VL: B1 VL
B5: 9A2-VR39.21 (antibody, V domains shown)
VH: B1 VH with Y30Q, W31H, M34T, I35V
VL: B1 VL
B6: 9A2-VR39.06 (antibody, V domains shown)
VH: B1 VH with Y30Q, M34Y
VL: B1 VL
B7: 9A2-VR39.18 (antibody, V domains shown)
VH: B1 VH with Y30P, W31G, H33V, M34W
VL: B1 VL
B8: 9A2-VR39.05 (antibody, V domains shown)
VH: B1 VH with Y30P, Y32F, M34T, I35V
VL: B1 VL
B9: 9A2-VR39.04 (antibody, V domains shown)
VH: B1 VH with Y30N, Y32F, H33Q, M34H
VL: B1 VL
B10: 9A2-VR39.01 (antibody, V domains shown)
VH: B1 VH with Y30F, Y32F, M34H, I35V
VL: B1 VL
B11: 9A2-VR24.131 (antibody, V domains shown)
VH: EVQLLESGGGLVQPGGSLRLSCAASGFTFPWYRVHWVRQAPGKGLEWVSSIRSSGGFTYYNPSVMGRFTISRDNSKNTLYLQMNSLRAEDTAVYYCARFYDSFFDIWGQGTMVTVSS
VL: B1 VL
B12: 9A2-VR39.19 (antibody, V domains shown)
VH: B1 VH with Y30Q, W31Y, Y32F, H33N, M34V
VL: B1 VL
B13: 9A2-VR39.12 (antibody, V domains shown)
VH: B1 VH with Y30F, Y32F, H33N, M34T, I35V
VL: B1 VL
B14: 9A2-VR5 (antibody, V domains shown)
VH: B11 VH with P30S, W31H, R33H, V34M, H35L, N61A, P62D, M65K
VL: B1 VL with S30R, S31P, W32F, L33V
B15: 9A2-VR9 (antibody, V domains shown)
VH: B11 VH with P30S, W31H, R33H, V34M, H35L, N61A, P62D, M65K
VL: B1 VL with S30R, S31P, W32F, L33I, A34D
B16: 9A2-VR8 (antibody, V domains shown)
VH: B11 VH with P30S, W31H, R33H, V34M, H35L, N61A, P62D, M65K
VL: B1 VL with I29V, S30R, S31P, W32F, L33I, A34S
B17: 9A2-VR6 (antibody, V domains shown)
VH: B11 VH with P30S, W31H, R33H, V34M, H35L, N61A, P62D, M65K
VL: B1 VL with I29V, S30R, S31P, W32F, L33V, A34N

Biological target: T1, human CD131
Experiment: cell-based or functional assay

IC50 GM-CSF, TF-1 proliferation	Binder
0.46 nM	B1
6.07 nM	B2
0.67 nM	B3
18.6 nM	B4
0.96 nM	B5
1.85 nM	B6
> 1000 nM	B7
0.96 nM	B8
30.4 nM	B9
0.51 nM	B10
1.06 nM	B11
7.26 nM	B12
25.1 nM	B13

Biological target: T1, human CD131
Experiment: cell-based or functional assay
Remark: another data set of the same source

IC50 GM-CSF, TF-1 proliferation	Binder
87 nM	B14
72.7 nM	B15
57.7 nM	B16
250 nM	B17
